This note sets out measurements from US10357539B2, “Use of peptides that block metadherin-SND1 interaction as treatment for cancer” (THE TRUSTEES OF PRINCETON UNIVERSITY, priority 2014, dated 2019).

“Also recorded” adds a separate entry of the source.

In experiment [1] the target is T1, SND1 (Homo sapiens, UniProt Q7KZF4).
T1 construct: 15 μg of His-SND1 (16-339) was added to the resin; made in house; host or cells: E. coli DH5α
T1 sequence (Q7KZF4 16-339): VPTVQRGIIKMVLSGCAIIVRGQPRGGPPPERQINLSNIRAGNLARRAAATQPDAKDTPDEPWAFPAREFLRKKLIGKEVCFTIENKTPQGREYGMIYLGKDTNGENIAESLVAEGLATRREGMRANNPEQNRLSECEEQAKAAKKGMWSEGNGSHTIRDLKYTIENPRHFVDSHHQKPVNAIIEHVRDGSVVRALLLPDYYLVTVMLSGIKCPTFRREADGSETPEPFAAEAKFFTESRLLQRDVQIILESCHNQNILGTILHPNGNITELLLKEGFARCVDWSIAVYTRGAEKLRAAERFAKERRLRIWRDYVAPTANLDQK
Put plainly: GST-mediated pull-down of SND1 by GST-tagged MTDH fragments and mutants. As to conditions: SND1 (16-339); GST-tagged MTDH (364-582). The format is binding. The source says: (§1) FIGS. 7A-E represents determination of key regions and residues mediating the MTDH-SND1 interaction. (FIG. 7A) Schematics of MTDH fragments and mutants with indicated SND1-binding capability. + indicates binding and − indicates no binding based on results shown below. Two putative nuclear localization signals are residues 432-451 for NLS2 and residues 561-580 for NLS3. In the enlarged view of the minimal binding region 386-407, 9 residues were targeted for mutagenesis in the current study. […] (FIG. 7B) Pulldown of His6-SND1AC by GST-tagged MTDH fragments with indicated boundaries. The bound proteins were examined by SDS-PAGE and visualized by Coomassie blue staining. (FIG. 7C) Pulldown of His6-SND1ΔC by GST-tagged WT or triple mutant MTDH fragments (364-582). For (FIG. 7B) and (FIG. 7C), 1/10 of the His6-SND1ΔC input was shown, and GST alone was used as a negative control. Representative results of 3 independent experiments are shown. (FIG. 7D, FIG. 7E) Lysates from HEK293T cells expressing the indicated ectopic human SND1, AGO2 or MTDH were immunoprecipitated with anti-Myc and immunoblotted with the indicated antibodies.
(§2) (FIG. 22A) In vitro pull-down of SND1 (16-339) by GST-tagged MTDH (364-582) harboring WT or mutant sequence. The proteins bound to GS4B were examined on SDS-PAGE and visualized by Coomassie blue staining. (FIG. 22B) In vitro pull-down of WT and mutant SND1 (16-339) by GST-tagged MTDH (364-582). The bound proteins were examined as in (FIG. 22A). For both (FIG. 22A) and (FIG. 22B), experiments were repeated three times; representative results are shown. The normalized percentage of binding was averaged from three experiments; mean±SEM was shown below the data. (FIG. 22C) HEK293T cells were transfected with human HA-SND1, WT Myc-MTDH or Myc-MTDH with indicated single point mutation. Lysates were immunoprecipitated with anti-Myc antibody and immunoblotted with the indicated antibodies. (FIG. 22D) HEK293T cells were transfected with human Myc-MTDH, WT HA-SND1 or mutant HA-SND1 with indicated single point mutations or deletions. Lysates were immunoprecipitated with anti-Myc and immunoblotted with the indicated antibodies.
GST-Mediated Pull-Down Assay: ˜20 μg of GST-MTDH (different truncation forms and site mutants) was bound to 10 μl of glutathione resin via GST tag. The resin was washed with 200 μl assay buffer (25 mM Tris, PH8.0, 150 mM NaCl, 3 mM DTT) three times to remove the excess unbound protein. 15 μg of His-SND1 (16-339) was added to the resin in a 100 μl volume suspended in the assay buffer with 2 mg/ml of BSA. The mixture was washed with 200 μl assay buffer twice before examined by SDS-PAGE, and visualized by Coomassie blue staining. The experiments were repeated 3 times and the ratio of SND1 associated with GST-MTDH was analyzed by ImageJ.

The target in experiment [2] is T2, SND1 (Homo sapiens, UniProt Q7KZF4).
T2 construct: Full-length HA-tagged SND1 was co-expressed with full-length Myc-tagged wild-type (WT) or mutant MTDH in HEK293T cells; expressed in transfected cells; host or cells: HEK293T
T2 sequence (Q7KZF4 1-910): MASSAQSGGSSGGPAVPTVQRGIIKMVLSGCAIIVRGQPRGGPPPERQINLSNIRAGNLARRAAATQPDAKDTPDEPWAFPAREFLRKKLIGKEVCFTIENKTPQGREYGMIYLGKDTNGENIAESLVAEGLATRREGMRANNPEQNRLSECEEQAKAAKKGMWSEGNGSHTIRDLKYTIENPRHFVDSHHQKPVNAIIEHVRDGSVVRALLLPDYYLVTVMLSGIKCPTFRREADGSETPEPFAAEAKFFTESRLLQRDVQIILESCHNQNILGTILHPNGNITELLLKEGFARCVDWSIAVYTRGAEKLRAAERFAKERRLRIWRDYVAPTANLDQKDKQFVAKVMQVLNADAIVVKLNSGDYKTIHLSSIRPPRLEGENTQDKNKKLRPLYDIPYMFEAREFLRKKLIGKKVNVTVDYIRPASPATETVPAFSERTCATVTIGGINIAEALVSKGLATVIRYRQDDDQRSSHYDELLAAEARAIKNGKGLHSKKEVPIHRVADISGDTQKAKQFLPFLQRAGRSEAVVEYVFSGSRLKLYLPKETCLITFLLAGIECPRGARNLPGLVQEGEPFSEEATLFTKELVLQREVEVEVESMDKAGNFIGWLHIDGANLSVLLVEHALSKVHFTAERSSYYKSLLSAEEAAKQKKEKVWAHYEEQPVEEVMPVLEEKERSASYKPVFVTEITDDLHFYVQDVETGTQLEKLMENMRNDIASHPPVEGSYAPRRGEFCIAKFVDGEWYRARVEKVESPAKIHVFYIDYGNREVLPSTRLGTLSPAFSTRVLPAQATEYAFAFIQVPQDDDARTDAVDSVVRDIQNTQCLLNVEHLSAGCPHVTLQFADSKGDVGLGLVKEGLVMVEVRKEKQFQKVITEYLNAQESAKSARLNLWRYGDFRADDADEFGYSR
In words: Co-immunoprecipitation of full-length Myc-MTDH (WT or mutant) and HA-SND1 in HEK293T cells. The format is cell-based. As to conditions: HEK293T cell lysates, immunoprecipitation and immunoblot.
From the text: as §1, §2
Immunoprecipitation and western blot For immunoprecipitation (IP) experiments, cultured cells were washed in cold PBS and lysed in lysis buffer (20 mM Tris pH 7.4, 0.15 M NaCl, 1 mM EDTA, 1 mM EGTA, 1% Tx-100, 0.0025 M Na2P2O7, 1 mM α-glycerolphosphate, 1 mM Na3VO4, and 1 mM NaF) with an EDTA-free protease inhibitor mixture (Roche Applied Science) and PMSF. Cell lysates were then incubated on ice for 10 min, centrifuged, and precleared by incubating with protein A/G beads (Santa Cruz Biotechnology) for 1 h at 4° C. For IP bead preparation, 30 μl of protein A/G beads were incubated with 5 μg of antibodies for 2 h at 4° C. IPs were carried out for overnight at 4° C., and beads were centrifuged, washed and subsequently boiled for 5 min in SDS protein loading buffer to elute bound protein. IP lysates were subjected to western blotting with indicated antibodies.
Immunoprecipitation and western blot: For in vivo immunoprecipitation (IP) experiments, cultured cells were washed in cold PBS and lysed in lysis buffer (20 mM Tris pH 7.4, 0.15 M NaCl, 1 mM EDTA, 1 mM EGTA, 1% Tx-100, 0.0025 M Na2P2O7, 1 mM β-glycerolphosphate, 1 mM Na3VO4, and 1 mM NaF) with an EDTA-free protease inhibitor mixture (Roche Applied Science) and PMSF. Cell lysates were then incubated on ice for 10 min, centrifuged, and precleared by incubating with protein A/G beads (Santa Cruz Biotechnology) for 1 h at 4° C. For IP bead preparation, 30 μl of protein A/G beads were incubated with 5 μg of antibodies for 2 h at 4° C. IPs were carried out for overnight at 4° C., and beads were centrifuged, washed and subsequently boiled for 5 min in SDS protein loading buffer to elute bound protein. IP lysates were subjected to western blotting with indicated antibodies.
Background: A western blot detects proteins with antibodies after separation by electrophoresis.

B1: W394D: MTDH single point mutant W394D (protein, UniProt Q86UE4 1-582, looked up, variant W394D)
Protein LYRIC: MAARSWQDELAQQAEEGSARLREMLSVGLGFLRTELGLDLGLEPKRYPGWVILVGTGALGLLLLFLLGYGWAAACAGARKKRRSPPRKREEAAAVPAAAPDDLALLKNLRSEEQKKKNRKKLSEKPKPNGRTVEVAEGEAVRTPQSVTAKQPPEIDKKNEKSKKNKKKSKSDAKAVQNSSRHDGKEVDEGAWETKISHREKRQQRKRDKVLTDSGSLDSTIPGIENTITVTTEQLTTASFPVGSKKNKGDSHLNVQVSNFKSGKGDSTLQVSSGLNENLTVNGGGWNEKSVKLSSQISAGEEKWNSVSPASAGKRKTEPSAWSQDTGDANTNGKDWGRSWSDRSIFSGIGSTAEPVSQSTTSDYQWDVSRNQPYIDDEWSGLNGLSSADPNSDDNAPAEEWGNWVDEERASLLKSQEPIPDDQKVSDDDKEKGEGALPTGKSKKKKKKKKKQGEDNSTAQDTEELEKEIREDLPVNTSKTRPKQEKAFSLKTISTSDPAEVLVKNSQPIKTLPPATSTEPSVILSKSDSDKSSSQVPPILQETDKSKSNTKQNSVPPSQTKSETSWESPKQIKKKKKARRET
Take B1: in experiment [1], the “SND1-binding of MTDH (364-582) point mutants, in vitro” value (from here on “SND1-binding of MTDH”) is recorded as “abolished or significantly reduced the interaction”. Also, the “interaction of full-length MTDH (WT or mutant) with HA-SND1” value (“interaction of full-length MTDH” for short) in experiment [2] was “completely and not”.

B2: W401D: MTDH single point mutant W401D (protein, UniProt Q86UE4 1-582, looked up, variant W401D)
Protein LYRIC: MAARSWQDELAQQAEEGSARLREMLSVGLGFLRTELGLDLGLEPKRYPGWVILVGTGALGLLLLFLLGYGWAAACAGARKKRRSPPRKREEAAAVPAAAPDDLALLKNLRSEEQKKKNRKKLSEKPKPNGRTVEVAEGEAVRTPQSVTAKQPPEIDKKNEKSKKNKKKSKSDAKAVQNSSRHDGKEVDEGAWETKISHREKRQQRKRDKVLTDSGSLDSTIPGIENTITVTTEQLTTASFPVGSKKNKGDSHLNVQVSNFKSGKGDSTLQVSSGLNENLTVNGGGWNEKSVKLSSQISAGEEKWNSVSPASAGKRKTEPSAWSQDTGDANTNGKDWGRSWSDRSIFSGIGSTAEPVSQSTTSDYQWDVSRNQPYIDDEWSGLNGLSSADPNSDWNAPAEEDGNWVDEERASLLKSQEPIPDDQKVSDDDKEKGEGALPTGKSKKKKKKKKKQGEDNSTAQDTEELEKEIREDLPVNTSKTRPKQEKAFSLKTISTSDPAEVLVKNSQPIKTLPPATSTEPSVILSKSDSDKSSSQVPPILQETDKSKSNTKQNSVPPSQTKSETSWESPKQIKKKKKARRET
For the molecule B2, the “SND1-binding of MTDH” value in experiment [1] is on record as “abolished or significantly reduced the interaction”. Also, the “interaction of full-length MTDH” value in experiment [2] was “partially abolished the binding; also recorded: significantly reduced the binding; also recorded: strongly reduced the binding”.

B3: W394A: MTDH mutant W394A (protein, UniProt Q86UE4 1-582, looked up, variant W394A)
Protein LYRIC: MAARSWQDELAQQAEEGSARLREMLSVGLGFLRTELGLDLGLEPKRYPGWVILVGTGALGLLLLFLLGYGWAAACAGARKKRRSPPRKREEAAAVPAAAPDDLALLKNLRSEEQKKKNRKKLSEKPKPNGRTVEVAEGEAVRTPQSVTAKQPPEIDKKNEKSKKNKKKSKSDAKAVQNSSRHDGKEVDEGAWETKISHREKRQQRKRDKVLTDSGSLDSTIPGIENTITVTTEQLTTASFPVGSKKNKGDSHLNVQVSNFKSGKGDSTLQVSSGLNENLTVNGGGWNEKSVKLSSQISAGEEKWNSVSPASAGKRKTEPSAWSQDTGDANTNGKDWGRSWSDRSIFSGIGSTAEPVSQSTTSDYQWDVSRNQPYIDDEWSGLNGLSSADPNSDANAPAEEWGNWVDEERASLLKSQEPIPDDQKVSDDDKEKGEGALPTGKSKKKKKKKKKQGEDNSTAQDTEELEKEIREDLPVNTSKTRPKQEKAFSLKTISTSDPAEVLVKNSQPIKTLPPATSTEPSVILSKSDSDKSSSQVPPILQETDKSKSNTKQNSVPPSQTKSETSWESPKQIKKKKKARRET
Consider B3, for which, in experiment [1], the “SND1-binding of MTDH” value is recorded as “abolished or significantly reduced the interaction”. For the same molecule, the “interaction of full-length MTDH” value in experiment [2] is “not”.
